Ends that are not written are not given here.
Tests used:
[1] = target: T1, Aβ 1-40 (beta-amyloid protein 1-40); assay: solid phase binding immunoassay; ~55 kDa laminin fragment immobilized on microtiter plates, increasing concentrations of Aβ (1-40)
T1 construct: Bought from Bachem; Residues 1-40 are counted on Aβ itself; also called Alzheimer's Aβ

[2] = target: Aβ (beta-amyloid protein, length not stated at the place); assay: cell-based or functional assay
[3] = target: Aβ 1-42 (beta-amyloid protein 1-42), pre-formed fibrils; assay: cell-based or functional assay

| Kd [1] [nM] | inhibition of Aβ fibril formation, Aβ:peptide molar ratio 1:1 [2] [%] | disruption of pre-formed Aβ 1-42 fibrils (Thioflavin T fluorometry), Aβ:peptide molar ratio 1:10 [3] [%] | Binder |
| --- | --- | --- | --- |
| 2 |  |  | ~55 kDa laminin fragment obtained by elastase digestion of EHS mouse laminin (other, UniProt P19137 2690-3083, looked up, domain: C-terminal globular domains of the laminin A1 chain; also called ~55 kilodalton laminin fragment; ~55 kDa fragment of laminin) HREHGELPPEPPTLPQPELCAVDTAPGYVAGAHQFGLSQNSHLVLPLNQSDVRKRLQVQLSIRTFASSGLIYYVAHQNQMDYATLQLQEGRLHFMFDLGKGRTKVSHPALLSDGKWHTVKTEYIKRKAFMTVDGQESPSVTVVGNATTLDVERKLYLGGLPSHYRARNIGTITHSIPACIGEIMVNGQQLDKDRPLSASAVDRCYVVAQEGTFFEGSGYAALVKEGYKVRLDLNITLEFRTTSKNGVLLGISSAKVDAIGLEIVDGKVLFHVNNGAGRITATYQPRAARALCDGKWHTLQAHKSKHRIVLTVDGNSVRAESPHTHSTSADTNDPIYVGGYPAHIKQNCLSSRASFRGCVRNLRLSRGSQVQSLDLSRAFDLQGVFPHSCPGPEP |
|  | 50 | 81 | RKRLQVQLSIRT-NH2 [AG73 peptide (laminin alpha-1 chain globular domain-derived peptide)] |
